T1: B3GNT2 (Homo sapiens, UniProt Q9NY97)
T1 construct: The respective ORFs of candidate genes [CD274 (NM_014143), MCL1 (NM_021960), JUNB (NM_002229), and B3GNT2 (NM_006577)] were synthesized; expressed in transfected cells; host or cells: A375 melanoma cells (lentiviral ORF overexpression)
T1 sequence (Q9NY97 1-397): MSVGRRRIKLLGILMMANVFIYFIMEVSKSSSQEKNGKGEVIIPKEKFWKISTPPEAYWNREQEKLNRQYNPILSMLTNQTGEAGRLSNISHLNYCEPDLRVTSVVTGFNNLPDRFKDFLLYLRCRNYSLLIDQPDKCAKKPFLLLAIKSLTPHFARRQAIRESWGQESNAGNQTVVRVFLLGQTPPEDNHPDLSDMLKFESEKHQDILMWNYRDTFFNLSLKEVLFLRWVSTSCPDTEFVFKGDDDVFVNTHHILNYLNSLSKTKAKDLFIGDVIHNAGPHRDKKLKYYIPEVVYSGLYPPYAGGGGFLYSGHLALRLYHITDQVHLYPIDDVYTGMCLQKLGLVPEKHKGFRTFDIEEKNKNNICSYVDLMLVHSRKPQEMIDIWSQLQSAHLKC


Molecular target: T1, B3GNT2
Assay: Co-IP of FLAG-tagged B3GNT2 followed by mass spectrometry
Format: cell-based
Parameters: C-term IgG / C-term flag: unit not given here
In short: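 FLAG-tagged B3GNT2 immunoprecipitated from cell lysate (HEPES, 1% Triton X-100, 150 mM NaCl) with anti-FLAG versus […], overnight at 4° C, then captured on Protein A/G magnetic beads for 4 h. Two biological replicates per condition. Peptides fractionated and analyzed by nano-LC on an Orbitrap Elite in data-dependent mode.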

[1] = Co-IP followed by mass spectrometry of B3GNT2, C-term tag, FLAG pull-down
[2] = Co-IP followed by mass spectrometry of B3GNT2, C-term tag, IgG pull-down
[3] = Co-IP followed by mass spectrometry of B3GNT2, N-term tag, FLAG pull-down
[4] = Co-IP followed by mass spectrometry of B3GNT2, N-term tag, IgG pull-down

Molecule	C-term flag [1]	C-term IgG [2]	N-term FLAG [3]	N-term IgG [4]	C-term flag (Co-IP with FLAG antibody, C-terminally FLAG-tagged B3GNT2, mass spectrometry count, unit not given)	N-term FLAG (Co-IP with FLAG antibody, N-terminally FLAG-tagged B3GNT2, mass spectrometry count, unit not given)	C-term IgG (Co-IP with IgG control antibody, C-terminally FLAG-tagged B3GNT2, mass spectrometry count, unit not given)	N-term IgG (Co-IP with IgG control antibody, N-terminally FLAG-tagged B3GNT2, mass spectrometry count, unit not given)
IMMT (protein) STSGSSGLTTGKIAGAGLLFVGGGIGGTILYAKWDSHFRESVEKTIPYSDKLFEMVLGPAAYNVPLPKKSIQSGPLKISSVSEVMKESKQPASQLQKQKGDTPASATAPTEAAQIISAAGDTLSVPAPAVQPEESLKTDHPEIGEGKPTPALSEASSSSIRERPPEEVAARLAQQEKQEQVKIESLAKSLEDALRQTASVTLQAIAAQNAAVQAVNAHSNILKAAMDNSEIAGEKKSAQWRTVEGALKERRKAVDEAADALLKAKEELEKMKSVIENAKKKEVAGAKPHITAAEGKLHNMIVDLDNVVKKVQAAQSEAKVVSQYHELVVQARDDFKRELDSITPEVLPGWKGMSVSDLADKLSTDDLNSLIAHAHRRIDQLNRELAEQKATEKQHITLALEKQKLEEKRAFDSAVAKALEHHRSEIQAEQDRKIEEVRDAMENEMRTQLRRQAAAHTDHLRDVLRVQEQELKSEFEQNLSEKLSEQELQFRRLSQEQVDNFTLDINTAYARLRGIEQAVQSHAVAEEEARKAHQLWLSVEALKYSMKTSSAETPTIPLGSAVEAIKANCSDNEFTQALTAAIPPESLTRGVYSEETLRARFYAVQKLARRVAMIDETRNSLYQYFLSYLQSLLLFPPQQLKPPPELCPEDINTFKLLSYASYCIEHGDLELAAKFVNQLKGESRRVAQDWLKEARMTLETKQIVEILTAYASAVGIGTTQVQPE	26	16	23	17	–	–	–	–
CHCHD3 (protein) GGTTSTRRVTFEADENENITVVKGIRLSENVIDRMKESSPSGSKSQRYSGAYGASVSDEELKRRVAEELALEQAKKESEDQKRLKQAKELDRERAAANEQLTRAILRERICSEEERAKAKHLARQLEEKDRVLKKQDAFYKEQLARLEERSSEFYRVTTEQYQKAAEEVEAKFKRYESHPVCADLQAKILQCYRENTHQTLKCSALATQYMHCVNHAKQSMLEKGG	15	11	16	10	–	–	–	–

Second part, the molecule after the results:

C-term flag [1]	C-term IgG [2]	N-term FLAG [3]	N-term IgG [4]	C-term flag (Co-IP with FLAG antibody, C-terminally FLAG-tagged B3GNT2, mass spectrometry count, unit not given)	N-term FLAG (Co-IP with FLAG antibody, N-terminally FLAG-tagged B3GNT2, mass spectrometry count, unit not given)	C-term IgG (Co-IP with IgG control antibody, C-terminally FLAG-tagged B3GNT2, mass spectrometry count, unit not given)	N-term IgG (Co-IP with IgG control antibody, N-terminally FLAG-tagged B3GNT2, mass spectrometry count, unit not given)	Molecule
5	0	0	0	–	–	–	–	GEMIN4 (protein) MDLGPLNICEEMTILHGGFLLAEQLFHPKALAELTKSDWERVGRPIVEALREISSAAAHSQPFAWKKKALIIIWAKVLQPHPVTPSDTETRWQEDLFFSVGNMIPTINHTILFELLKSLEASGLFIQLLMALPTTICHAELERFLEHVTVDTSAEDVAFFLDVWWEVMKHKGHPQDPLLSQFSAMAHKYLPALDEFPHPPKRLRSDPDACPTMPLLAMLLRGLTQIQSRILGPGRKCCALANLADMLTVFALTEDDPQEVSATVYLDKLATVISVWNSDTQNPYHQQALAEKVKEAERDVSLTSLAKLPSETIFVGCEFLHHLLREWGEELQAVLRSSQGTSYDSYRLCDSLTSFSQNATLYLNRTSLSKEDRQVVSELAECVRDFLRKTSTVLKNRALEDITASIAMAVIQQKMDRHMEVCYIFASEKKWAFSDEWVACLGSNRALFRQPDLVLRLLETVIDVSTADRAIPESQIRQVIHLILECYADLSLPGKNKVLAGILRSWGRKGLSEKLLAYVEGFQEDLNTTFNQLTQSASEQGLAKAVASVARLVIVHPEVTVKKMCSLAVVNLGTHKFLAQILTAFPALRFVEEQGPNSSATFMVSCLKETVWMKFSTPKEEKQFLELLNCLMSPVKPQGIPVAALLEPDEVLKEFVLPFLRLDVEEVDLSLRIFIQTLEANACREEYWLQTCSPFPLLFSLCQLLDRFSKYWQLPKEKRCLSLDRKDLAIHILELLCEIVSANAETFSPDVWIKSLSWLHRKLEQLDWTVGLRLKSFFEGHFKCEVPATLFEICKLSEDEWTSQAHPGYGAGTGLLAWMECCCVSSGISERMLSLLVVDVGNPEEVRLFSKGFLVALVQVMPWCSPQEWQRLHQLTRRLLEKQLLHVPYSLEYIQFVPLLNLKPFAQELQLSVLFLRTFQFLCSHSCRDWLPLEGWNHVVKLLCGSLTRLLDSVRAIQAAGPWVQGPEQDLTQEALFVYTQVFCHALHIMAMLHPEVCEPLYVLALETLTCYETLSKTNPSVSSLLQRAHEQRFLKSIAEGIGPEERRQTLLQKMSSF
5	0	0	0	–	–	–	–	MAP4 (protein, UniProt P27816 2-1152, looked up) Microtubule-associated …: ADLSLADALTEPSPDIEGEIKRDFIATLEAEAFDDVVGETVGKTDYIPLLDVDEKTGNSESKKKPCSETSQIEDTPSSKPTLLANGGHGVEGSDTTGSPTEFLEEKMAYQEYPNSQNWPEDTNFCFQPEQVVDPIQTDPFKMYHDDDLADLVFPSSATADTSIFAGQNDPLKDSYGMSPCNTAVVPQGWSVEALNSPHSESFVSPEAVAEPPQPTAVPLELAKEIEMASEERPPAQALEIMMGLKTTDMAPSKETEMALAKDMALATKTEVALAKDMESPTKLDVTLAKDMQPSMESDMALVKDMELPTEKEVALVKDVRWPTETDVSSAKNVVLPTETEVAPAKDVTLLKETERASPIKMDLAPSKDMGPPKENKKETERASPIKMDLAPSKDMGPPKENKIVPAKDLVLLSEIEVAQANDIISSTEISSAEKVALSSETEVALARDMTLPPETNVILTKDKALPLEAEVAPVKDMAQLPETEIAPAKDVAPSTVKEVGLLKDMSPLSETEMALGKDVTPPPETEVVLIKNVCLPPEMEVALTEDQVPALKTEAPLAKDGVLTLANNVTPAKDVPPLSETEATPVPIKDMEIAQTQKGISEDSHLESLQDVGQSAAPTFMISPETVTGTGKKCSLPAEEDSVLEKLGERKPCNSQPSELSSETSGIARPEEGRPVVSGTGNDITTPPNKELPPSPEKKTKPLATTQPAKTSTSKAKTQPTSLPKQPAPTTIGGLNKKPMSLASGLVPAAPPKRPAVASARPSILPSKDVKPKPIADAKAPEKRASPSKPASAPASRSGSKSTQTVAKTTTAAAVASTGPSSRSPSTLLPKKPTAIKTEGKPAEVKKMTAKSVPADLSRPKSTSTSSMKKTTTLSGTAPAAGVVPSRVKATPMPSRPSTTPFIDKKPTSAKPSSTTPRLSRLATNTSAPDLKNVRSKVGSTENIKHQPGGGRAKVEKKTEAAATTRKPESNAVTKTAGPIASAQKQPAGKVQIVSKKVSYSHIQSKCGSKDNIKHVPGGGNVQIQNKKVDISKVSSKCGSKANIKHKPGGGDVKIESQKLNFKEKAQAKVGSLDNVGHLPAGGAVKTEGGGSEAPLCPGPPAGEEPAISEAAPEAGAPTSASGLNGHPTLSGGGDQREAQTLDSQIQETSI
2	0	3	0	–	–	–	–	IL13RA2 (protein) DTEIKVNPPQDFEIVDPGYLGYLYLQWQPPLSLDHFKECTVEYELKYRNIGSETWKTIITKNLHYKDGFDLNKGIEAKIHTLLPWQCTNGSEVQSSWAETTYWISPQGIPETKVQDMDCVYYNWQYLLCSWKPGIGVLLDTNYNLFYWYEGLDHALQCVDYIKADGQNIGCRFPYLEASDYKDFYICVNGSSENKPIRSSYFTFQLQNIVKPLPPVYLTFTRESSCEIKLKWSIPLGPIPARCFDYEIEIREDDTTLVTATVENETYTLKTTNETRQLCFVVRSKVNIYCSDDGIWSEWSDKQCWEGEDLSKKTLLRFWLPFGFILILVIFVTGLLLRKPNTYPKMIPEFFCDT
–	–	–	–	24	14	0	0	PDIA3 (protein) SDVLELTDDNFESRISDTGSAGLMLVEFFAPWCGHCKRLAPEYEAAATRLKGIVPLAKVDCTANTNTCNKYGVSGYPTLKIFRDGEEAGAYDGPRTADGIVSHLKKQAGPASVPLRTEEEFKKFISDKDASIVGFFDDSFSEAHSEFLKAASNLRDNYRFAHTNVESLVNEYDDNGEGIILFRPSHLTNKFEDKTVAYTEQKMTSGKIKKFIQENIFGICPHMTEDNKDLIQGKDLLIAYYDVDYEKNAKGSNYWRNRVMMVAKKFLDAGHKLNFAVASRKTFSHELSDFGLESTAGEIPVVAIRTAKGEKFVMQEEFSRDGKALERFLQDYFDGNLKRYLKSEPIPESNDGPVKVVVAENFDEIVNNENKDVLIEFYAPWCGHCKNLEPKYKELGEKLSKDPNIVIAKMDATANDVPSPYEVRGFPTIYFSPANKKLNPKKYEGGRELSDFISYLQREATNPPVIQEEKPKKKKKAQEDL

From patent US20240261333A1, “NOVEL TARGETS FOR ENHANCING ANTI-TUMOR IMMUNITY” (THE BROAD INSTITUTE, INC., priority 2021, published 2024)
